Test results reported in article PMC5956149.

target: GFP-tagged MtrB (cytosolic catalytic domain of MtrB with GFP downstream) (Mycobacterium tuberculosis); test: MST

Substance | Kd [nM]
MtrB wild type (cytosolic catalytic domain) (domain or fragment) | 1170
MtrB^N419D (mutant defective in ATP binding, cytosolic catalytic domain) (domain or fragment) | 770
MtrB^H305Q (phosphorylation site mutant, cytosolic catalytic domain) (domain or fragment) | 410
